# Results published in PMC5243199 (Cancer research, 2016).
# Where no end group is shown, it is not given here.
# B1: His-Daxx (183–260) (domain or fragment, UniProt Q9UER7 183-260, looked up)
# chain: GSRRQIQRLEQLLALYVAEIRRLQEKELDLSELDDPDSAYLQEARLKRKLIRLFGRLCELKDCSSLTGRVIEQRIPYR
# B2: His-menin (natural protein, UniProt O00255-2 1-610, looked up)
# chain: MGLKAAQKTLFPLRSIDDVVRLFAAELGREEPDLVLLSLVLGFVEHFLAVNRVIPTNVPELTFQPSPAPDPPGGLTYFPVADLSIIAALYARFTAQIRGAVDLSLYPREGGVSSRELVKKVSDVIWNSLSRSYFKDRAHIQSLFSFITGTKLDSSGVAFAVVGACQALGLRDVHLALSEDHAWVVFGPNGEQTAEVTWHGKGNEDRRGQTVNAGVAERSWLYLKGSYMRCDRKMEVAFMVCAINPSIDLHTDSLELLQLQQKLLWLLYDLGHLERYPMALGNLADLEELEPTPGRPDPLTLYHKGIASAKTYYRDEHIYPYMYLAGYHCRNRNVREALQAWADTATVIQDYNYCREDEEIYKEFFEVANDVIPNLLKEAASLLEAGEERPGEQSQGTQSQGSALQDPECFAHLLRFYDGICKWEEGSPTPVLHVGWATFLVQSLGRFEGQVRQKVRIVSREAEAAEAEEPWGEEAREGRRRGPRRESKPEEPPPPKKPALDKGLGTGQGAVSGPPRKPPGTVAGTARGPEGGSTAQVPAPTASPPPEGPVLTFQSEKMKGMKELLVATKINSSAIKLQLTAQSQVQMKKQKVSTPSDYTLSFLKRQRKGL
# Tests used:
# [1] = molecular target: B2; test: co-IP
# [2] = molecular target: GST-Daxx (UniProt Q9UER7 1-740); test: pull-down
# [3] = molecular target: His-Daxx (183–398) (UniProt Q9UER7 183-398); test: pull-down
# GST-Daxx, sequence (Q9UER7 whole entry): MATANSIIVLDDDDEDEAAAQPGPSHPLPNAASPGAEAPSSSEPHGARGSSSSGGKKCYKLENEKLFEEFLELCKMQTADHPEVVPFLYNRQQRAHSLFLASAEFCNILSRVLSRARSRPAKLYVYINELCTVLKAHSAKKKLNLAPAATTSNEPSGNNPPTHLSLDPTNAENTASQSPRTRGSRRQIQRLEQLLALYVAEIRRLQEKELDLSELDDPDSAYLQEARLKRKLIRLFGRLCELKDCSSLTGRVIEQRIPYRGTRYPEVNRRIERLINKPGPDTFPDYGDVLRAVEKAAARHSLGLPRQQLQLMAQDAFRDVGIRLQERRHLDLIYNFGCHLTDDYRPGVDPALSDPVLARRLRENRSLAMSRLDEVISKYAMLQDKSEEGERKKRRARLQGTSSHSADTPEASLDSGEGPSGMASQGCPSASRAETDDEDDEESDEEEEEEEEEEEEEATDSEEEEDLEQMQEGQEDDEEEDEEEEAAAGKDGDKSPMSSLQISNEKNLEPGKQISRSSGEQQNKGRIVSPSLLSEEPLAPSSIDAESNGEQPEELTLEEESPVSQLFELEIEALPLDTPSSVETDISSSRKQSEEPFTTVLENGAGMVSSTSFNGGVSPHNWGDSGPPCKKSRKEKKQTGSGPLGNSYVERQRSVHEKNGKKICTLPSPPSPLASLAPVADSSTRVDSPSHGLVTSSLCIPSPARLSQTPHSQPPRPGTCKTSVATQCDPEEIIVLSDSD
binder,measurement,setting,value
B1,binding result,[1],binds
B2,binding result,[2],binds
GTCKWEEGSPTPVLHVGWATQSE (also: biotinylated) [biotinylated menin peptide GTCKWEEGSPTPVLHVGWATQSE],binding result,[3],binds
